Experimental data taken from PMC9503621.

Columns and labels:
[1] = biological target: large (50S) ribosomal subunit from Staphylococcus aureus (S. aureus) (UniProt Q2FW16)
[2] = biological target: large (50S) ribosomal subunit from Staphylococcus aureus (S. aureus) (UniProt Q2FW16); remark: listed apart in the source

UniProt Q2FW16, sequence (Q2FW16 whole entry, looked up): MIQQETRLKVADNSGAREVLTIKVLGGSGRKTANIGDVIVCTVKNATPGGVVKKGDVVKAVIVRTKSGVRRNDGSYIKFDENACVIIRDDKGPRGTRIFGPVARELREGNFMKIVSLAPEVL

Substance	Mg2+ concentration at which half of the vacant 70S ribosomes are dissociated into 50S + 30S (sucrose gradient profiles, 2X molar excess of RsfS, 3-5 mM Mg2+) [1] [mM Mg2+]	anti-association activity at 4 mM Mg2+ (relative amount of dissociated 50S + 30S subunits, sucrose gradient profiles) [1] [% activity]	efficiency of translation inhibition in the S. aureus cell-free system at 6 mM Mg2+ (370 mM K+) [2] [%]	loss of anti-association activity at 4 mM Mg2+ (relative amount of dissociated 50S + 30S subunits, sucrose gradient profiles) (% of activity lost) [1]
Ribosomal silencing factor S (RsfS) from Staphylococcus aureus, wild type (natural protein)	5	100	80	–
RsfS E70A mutant from Staphylococcus aureus (natural protein)	4.4	–	70	20
RsfS Y98A mutant from Staphylococcus aureus (natural protein)	3.4	–	35	80
